In US20250346673A1 (DUALITY BIOLOGICS SUZHOU, published 2025):
Residue numbers refer to the chain shown, from its start.

T1: human BDCA2 (human, UniProt Q8WTT0 1-213)
T1 construct: whole, on cells; also called hBDCA2; Blood dendritic cell antigen 2
T1 sequence (looked up): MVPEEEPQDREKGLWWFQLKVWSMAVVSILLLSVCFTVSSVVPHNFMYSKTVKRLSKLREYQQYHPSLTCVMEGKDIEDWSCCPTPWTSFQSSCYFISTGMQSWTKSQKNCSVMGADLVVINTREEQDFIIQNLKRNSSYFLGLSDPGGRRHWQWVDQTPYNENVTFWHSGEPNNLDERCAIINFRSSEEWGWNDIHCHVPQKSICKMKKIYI

T2: cynomolgus BDCA2 (cynomolgus monkey, UniProt A0A2K5UWP4 1-212)
T2 construct: whole, on cells; also called Cyno BDCA2; cynoBDCA2
T2 sequence: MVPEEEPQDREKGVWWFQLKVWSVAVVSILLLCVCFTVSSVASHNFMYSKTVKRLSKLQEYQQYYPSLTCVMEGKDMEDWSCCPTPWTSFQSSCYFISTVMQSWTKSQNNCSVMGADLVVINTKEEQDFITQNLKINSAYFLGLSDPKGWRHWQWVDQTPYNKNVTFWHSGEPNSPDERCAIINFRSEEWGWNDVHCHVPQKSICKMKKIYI

B1: mAb024 (antibody, V domains shown)
VH: EVQLVESGGDLVKPGGSLKLSCAASGFTFSSFGMSWVRQTPDKRLDWVATISSGDSYTYYPDSVKGRFSISRDNAKNTLYLQMSSLKSEDTAVYYCARQIYYDYAYYFDYWGQGTTLTVSS
VL: DIVLTQSPASLAVSLGQRATISCRASESVSFRSSHLMHWYRQKPGQPPKLLIYAASNLESGVPARFSGSGSETDFTLNIHPVEEEDAAAYFCQQSIEDPPTFGGGTKLEIK
notes: Mouse hybridoma antibody
B2: mAb020 (antibody, V domains shown)
VH: DVQLQESGPGLVKPSQSLSLTCSVTGYSIASGYYWNWIRQFPGNKLEWMGYISFDGTYNYNPSLKDRFSITRDTSKNQFFLKLNSVTTEDTATYYCARGVDYPNAIDWWGQGTSVTVSS
VL: B1 VL with F31M, R32H, S33V, S34T, M37I, R41Q, A54V, A89T, I96F, P100W
notes: Mouse hybridoma antibody
B3: mAb022 (antibody, V domains shown)
VH: B2 VH with A30T, N104K, I106M
VL: B1 VL with F31M, R32H, S33V, S34T, M37I, R41Q, A54V, A89T, I96F, P100W
notes: Mouse hybridoma antibody
B4: mAb019 (antibody, V domains shown)
VH: EVKLVESGGDLVQPGGSLKLSCAASGFTFSDYYMYWVRQTPEKRLEWVAYISYSGDSTYYPDTVKGRFTISRDNAKNTLFLQMSRLKSEDTAMYYCARHSPSFPYYFDYWGQGTALTVSS
VL: EIVLTQSPAITAASLGQKVTITCSASSSVSYMHWYQQKSGTSPKPWIYEISKLASGVPARFSGSGSGTSYSLTISSMEAEDAAIYYCQLWNYPLITFGGGTNLEIK
notes: Mouse hybridoma antibody
B5: mAb030 (antibody, V domains shown)
VH: DVQLQESGPGLVKPSQSLSLTCSVTGYSITSAYYWNWIRQFPGNKLECMGYISYDGSNYYNPSLKNRISITRDTSKNQFFLSLNSVTTEDTATYFCVRGGDYDDGGFAYWGQGTLVTVSA
VL: DIQMTQSPASLSASVGETVTITCRASGNIHNYLAWYQQKQGKSPQLLVYNAKTLADGVPSRFSGSGSETQYSLKINSLQPEDFGNYFCQHFWIIPYTFGGGTKLEIK
notes: Mouse hybridoma antibody
B6: mAb021 (antibody, V domains shown)
VH: B5 VH with S53T, S57N, N61S, S82N, V97A, Y109F
VL: B5 VL with Q37H, T53S, A55V, E68G, K74R, N85S, F87Y, I94V, K107I
notes: Mouse hybridoma antibody
B7: mAb027 (antibody, V domains shown)
VH: B5 VH with I38V, K45Q, S53T, Y59N, S82K, F95Y
VL: B5 VL with A55V, E68G, Q70E, N85I, K107R
notes: Mouse hybridoma antibody
B8: mab020c (antibody, V domains shown)
VH: B2 VH
VL: B1 VL with F31M, R32H, S33V, S34T, M37I, R41Q, A54V, A89T, I96F, P100W
B9: mab024c (antibody, V domains shown)
VH: B1 VH
VL: B1 VL
B10: mab022c (antibody, V domains shown)
VH: B2 VH with A30T, N104K, I106M
VL: B1 VL with F31M, R32H, S33V, S34T, M37I, R41Q, A54V, A89T, I96F, P100W
B11: mab019c (antibody, V domains shown)
VH: B4 VH
VL: B4 VL
B12: mab021c (antibody, V domains shown)
VH: B5 VH with S53T, S57N, N61S, S82N, V97A, Y109F
VL: B5 VL with Q37H, T53S, A55V, E68G, K74R, N85S, F87Y, I94V, K107I
B13: mab030c (antibody, V domains shown)
VH: B5 VH
VL: B5 VL
B14: mab027c (antibody, V domains shown)
VH: B5 VH with I38V, K45Q, S53T, Y59N, S82K, F95Y
VL: B5 VL with A55V, E68G, Q70E, N85I, K107R

molecular target: T1, human BDCA2; assay: FACS on CHOK1-hBDCA2 cells; EC50 table under the plot, unit from the x axis (nM) [continued) d.]
Method: (§1) The cells were recovered and resuspended to 2×10⁶/mL with FACS buffer (PBS+2% FBS). The cells were added to 3799 cell plates (Corning) at 100 μL/well, and the supernatant was discarded after centrifugation at 300 g. The antibodies were serially diluted with FACS buffer (Id.), the diluted antibodies were added to centrifuged cells and the cells were resuspended. The cells were incubated at 4° C. for 1 h. The incubated cells were then centrifuged at […] for 5 min and washed twice with FACS buffer. 100 μL Donkey anti-Mouse IgG (H+L) Highly Cross-Adsorbed Secondary Antibody-Alexa Fluor 488 (Invitrogen, A21202; 1:1000) secondary antibody was added to the cells, which were washed twice with FACS buffer after incubation at 4° C. for 1 h, resuspended with PBS, analyzed with FACS (BD FACS CantoTM II) instrument. The curve was fitted with GraphPad Prism6, and EC₅₀ values were calculated.

| EC50 [nM] | Binder |
| --- | --- |
| 0.343 | B1 |
| 0.707 | B2 |
| 0.723 | B3 |
| 0.271 | B4 |
| 0.293 | B5 |
| 0.328 | B6 |
| 0.302 | B7 |

molecular target: T1, human BDCA2; assay: cell-based or functional assay

| IC50, inhibition of IFNα secretion, CpG-A stimulated human PBMC [nM] | IC50 for inhibiting cytokine IFNα release, CpG-A stimulated human PBMC [nM] | Binder |
| --- | --- | --- |
| 0.0185 | – | B8 |
| – | 0.00274 | B1 |
| 0.0168 | – | B9 |
| – | 0.00615 | B2 |
| – | 0.00623 | B3 |
| 0.0324 | – | B10 |
| 0.0149 | – | B11 |
| – | 0.00332 | B4 |
| 0.0127 | – | B12 |
| – | 0.00476 | B5 |
| 0.0164 | – | B13 |
| – | 0.00405 | B6 |
| – | 0.07 | B7 |
| 0.00898 | – | B14 |

molecular target: T2, cynomolgus BDCA2; assay: FACS on 293F-cynoBDCA2 cells; EC50 table under the plot, unit from the x axis (nM) [continued) d.]
Method: as §1

| EC50 [nM] | Binder |
| --- | --- |
| 1.04 | B1 |
| 1.9 | B2 |
| 1.96 | B3 |
| 0.485 | B4 |
| 0.566 | B5 |
| 0.566 | B6 |
| 0.68 | B7 |

molecular target: T1, human BDCA2; assay: FACS on CHOK1-hBDCA2 cells; EC50 table beside the plot, unit from the x axis (nM) [continued) c.]
Method: The cells were recovered and resuspended to 2×10⁶/mL with FACS buffer (PBS+2% FBS). The cells were added to 3799 cell plates (Corning) at 100 μL/well, and the supernatant was discarded after centrifugation at 300 g. The antibodies were serially diluted with FACS buffer (Id.), the diluted antibodies were added to centrifuged cells and the cells were resuspended. The cells were incubated at 4° C. for 1 h. The incubated cells were centrifuged at 300 g for 5 min and washed twice with FACS buffer. 100 μL […] anti-Human IgG (H+L) Cross-Adsorbed Secondary Antibody-Alexa Fluor 488 (Sigma, A11013; 1:1000) secondary antibody was added, washed twice with FACS buffer after incubation at 4° C. for 1 h, resuspended with PBS, analyzed with FACS (BD FACS CantoTM II) instrument and curve fitted with GraphPad Prism6, and EC₅₀ values were calculated.

| EC50 [nM] | Binder |
| --- | --- |
| 0.831 | B8 |
| 0.549 | B9 |
| 0.939 | B10 |
| 5.17 | B11 |
| 0.479 | B12 |
| 0.583 | B13 |
| 0.443 | B14 |
